# Data: US20230272055A1 (Incyte, published 2023)
# Changes are numbered by the printed parent chain.
# T1: human mutCALR on BaF3 cells stably expressing human MPL and human mutCALR (MPL-mutCALR cells) (human)
# T1 construct: also called mutant calreticulin
# T1 chain: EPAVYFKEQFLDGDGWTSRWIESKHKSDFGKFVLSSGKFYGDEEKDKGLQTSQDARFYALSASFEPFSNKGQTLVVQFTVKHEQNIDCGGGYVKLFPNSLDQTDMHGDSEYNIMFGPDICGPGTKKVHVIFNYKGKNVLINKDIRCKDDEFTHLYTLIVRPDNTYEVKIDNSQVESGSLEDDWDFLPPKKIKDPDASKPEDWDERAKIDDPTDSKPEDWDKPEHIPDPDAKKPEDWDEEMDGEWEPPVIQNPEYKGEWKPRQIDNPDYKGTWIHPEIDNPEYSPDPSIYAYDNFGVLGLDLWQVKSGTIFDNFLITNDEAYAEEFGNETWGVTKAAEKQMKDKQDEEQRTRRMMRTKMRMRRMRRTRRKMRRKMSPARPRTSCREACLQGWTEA
# T2: human Type 1 mutCALR on Ba/F3 cells expressing MPL and Type 1 mutCALR (human)
# T2 chain: T1 chain
# B1: anti-mutCALR antibody clone 53 (antibody, human IgG1, lambda, V domains shown)
# VH: QVQLVQSGAEVKKPGASVKVSCKVSGYTLTELSMHWVRQAPGKGLEWMGGFDPEDGETIYAQKFQGRVTMTEDTSTDTAYMELSSLRSEDTAVYYCATDIQGLAEFDYWGQGTLVTVSS
# VL: QSALTQPRSVSGSPGQSVTISCTGTNTDVGAYIDVSWYQQHPGKAPKLIIYDVSKWPSGVPDRFSGSKSGNTASLTISGLQAEDEADYYCCSYAGNHSFSFGGGTKVTVLG
# notes: human IgG1
# B2: anti-mutCALR antibody clone 37 (antibody, human IgG1, lambda, V domains shown)
# VH: QVQLVQSGAEVKKPGATVKISCKVSGYSFTDYFIHWVQQAPGKGLAWVGLVDPEDGETIYAEKFQGRVTITADTSTDTAYMELSSLRSEDTAVYYCATPGGILTDPDAFDIWGQGTMVTVSS
# VL: QSALTQPASVSGSPGQSITISCTGTSSDVGGYNYVSWYQQHPGKAPKLMIYDVSNRPSGVSNRFSGSKSGNTASLTISGLQAEDEADYYCSSYTSSSTFYVFGTGTKVTVLG
# notes: human IgG1
# B3: anti-mutCALR antibody clone 33 (antibody, human IgG1, lambda, V domains shown)
# VH: B2 VH
# VL: QSALTQPRSVSGSPGQSVTISCAGTGSDVGGYNHVSWYQHHPGKAPKLMIYDVNKRPSGVPDRFSGSKSGNTASLTISGLQAEDEADYYCSSYIPSSTRWVFGGGTKLTVLG
# notes: human IgG1
# B4: anti-mutCALR antibody clone 31 (antibody, human IgG1, lambda, V domains shown)
# VH: B2 VH
# VL: B3 VL with R8A, A23T, G26S, H34Y
# notes: human IgG1
# B5: anti-mutCALR antibody clone 35 (antibody, human IgG1, lambda, V domains shown)
# VH: B2 VH with K63R
# VL: B2 VL with D52E, F99P
# notes: human IgG1
# B6: anti-mutCALR antibody clone 36 (antibody, human IgG1, lambda, V domains shown)
# VH: B2 VH
# VL: B3 VL with H34Y, I94T, P95S, R99F, W100Y, G104T, L108V
# notes: human IgG1
# B7: anti-mutCALR antibody clone 32 (antibody, human IgG1, lambda, V domains shown)
# VH: B2 VH
# VL: B2 VL with D52E, F99P
# notes: human IgG1
# B8: anti-mutCALR antibody clone 41 (antibody, human IgG1, lambda, V domains shown)
# VH: EVQLVQSGAEVKKPGASVKVSCKVSGYTLTELSMHWVRQAPGKGLEWMGLVDPEDGETIYAQKFQGRVTMTEDTSTDTAYMELSSLRSEDTAVYYCAREEWSGDGDDAFDIWGQGTMVTVSS
# VL: QSVLTQPPSVSAAPGQKVTISCSGSSSNIGSYSVSWYQQLPGTAPKLLIYDNNKRPSGIPDRFSGSNSGTSATLGITGLQTGDEADYYCGTWDSSLSAWVFGGGTKLTVLG
# notes: human IgG1
# B9: anti-mutCALR antibody clone 6 (antibody, human IgG1, lambda)
# heavy: not shown
# light: QSALTQPASVSGSPGQSITISCTGTSSDVGGYNYVSWYQQHPGKAPKLMIYEVSNRPSGVSNRFSGSNSGNTATLTINRVEAGDEADYYCQVWDSSNDLLIFGGGTKLTVLGQPKAAPSVTLFPPSSEELQANKATLVCLISDFYPGAVTVAWKADSSPVKAGVETTTPSKQSNNKYAASSYLSLTPEQWKSHRSYSCQVTHEGSTVEKTVAPTECS
# notes: human IgG1
# B10: anti-mutCALR antibody clone 11 (antibody, human IgG1, lambda, V domains shown)
# VH: EVRLVQSGAEVKKPGASVKVSCKVSGYTLTELSMQWVRQAPGKGLEWMGGFDPDDGETMYAEKFQGRLTVTEDTSTDTVYMELRSLTSEDTALYFCATSPGYDFFDYWGQGTLVTVSS
# VL: QSALTQPRSVSGSPGQSVTISCTGTSSDVGGYNYVSWYQQHPGKAPKLMIYDVSKRPSGVPDRFSGSNSGNTATLTINRVEAGDEADYYCQVWDSSNDLLIFGGGTKLTVLG
# notes: human IgG1
# B11: anti-mutCALR antibody clone 18 (antibody, human IgG1, lambda, V domains shown)
# VH: B10 VH with R3Q
# VL: SYVLTQPPSVSVAPGKTARITCGGNNIGSKSVHWYQQKPGQAPVLVVYDDSDRPLGIPERFSGSNSGNTATLTINRVEAGDEADYYCQVWDSSNDLLIFGGGTKLTVLG
# notes: human IgG1
# B12: anti-mutCALR antibody clone 23 (antibody, human IgG1, lambda, V domains shown)
# VH: B10 VH with R3Q
# VL: B11 VL with K16Q, S29I, L55S
# notes: human IgG1
# B13: anti-mutCALR antibody clone 20 (antibody, human IgG1, lambda, V domains shown)
# VH: B10 VH with R3Q
# VL: B11 VL with S31G, L55S
# notes: human IgG1
# B14: anti-mutCALR antibody clone 30 (antibody, human IgG1, lambda, V domains shown)
# VH: B10 VH with R3Q
# VL: B11 VL with R19T, S29T, L55S
# notes: human IgG1
# B15: anti-mutCALR antibody clone 28 (antibody, human IgG1, lambda, V domains shown)
# VH: B10 VH with R3Q
# VL: B11 VL with V3E, K16Q, L55S, N75S, S92A, S93D, N94S, L96Q
# notes: human IgG1
# B16: anti-mutCALR antibody clone 29 (antibody, human IgG1, lambda, V domains shown)
# VH: B10 VH with R3Q
# VL: B11 VL with L55S, N75S, N94S, T103A
# notes: human IgG1
# B17: anti-mutCALR antibody clone 25 (antibody, human IgG1, lambda, V domains shown)
# VH: B10 VH with R3Q
# VL: B11 VL with V3E, S11A, K16Q, S29R, S31A, L55S
# notes: human IgG1
# B18: anti-mutCALR antibody clone 19 (antibody, human IgG1, lambda, V domains shown)
# VH: B10 VH with R3Q, S75P
# VL: B11 VL with P8L, P14L, K16Q, N25S, S29D, K30I, S31R, L55S
# B19: anti-mutCALR antibody clone 27 (antibody, human IgG1, lambda, V domains shown)
# VH: B10 VH with R3Q
# VL: B11 VL with K16Q, S29I, S51R, L55S
# notes: human IgG1
# B20: anti-mutCALR antibody clone 22 (antibody, human IgG1, lambda, V domains shown)
# VH: B10 VH with R3Q
# VL: B11 VL with S31N, L55S
# notes: human IgG1
# B21: anti-mutCALR antibody clone 26 (antibody, human IgG1, lambda, V domains shown)
# VH: B10 VH with R3Q
# VL: B11 VL with K16Q, L55S, N75S, N94I, L96H, L105V
# notes: human IgG1
# B22: anti-mutCALR antibody clone 21 (antibody, human IgG1, lambda, V domains shown)
# VH: B10 VH with R3Q, K23E
# VL: B11 VL with K16Q, I20V, T21S, H33N, Q36R, V47I, L55S, N75S
# notes: human IgG1
# B23: anti-mutCALR antibody clone 24 (antibody, human IgG1, lambda, V domains shown)
# VH: B10 VH with R3Q, F64L
# VL: B11 VL with L55S
# notes: human IgG1
# B24: anti-mutCALR antibody clone 52 (antibody, human IgG1, kappa, V domains shown)
# VH: EVQLVQSGAEVKKPGASVKVSCKVSGYTLTELSMHWVRQAPGKGLEWMGLVDPEDGETIYAEKFQGRVTITADTSTDTAYMELSSPRSEDTAVYYCATTIGDDYFDYWGQGTLVTVSS
# VL: not shown
# notes: human IgG1
# B25: anti-mutCALR antibody clone 38 (antibody, human IgG1, kappa, V domains shown)
# VH: EVQPVQSGAEVKKPGSSVKVSCKASGGTFSSYAISWVRQAPGQGLEWMGLVDPEDGETIYAEKFRGRVTITADTSTDTAYMELSSLRSEDTAVYYCATEESYGPWGQGTLVTVSS
# VL: DIQLTQSPSSLSASVGDRVTITCQASQDISNYLNWYQQKPGKAPKLLIYDASNLETGVPSRFSGSGSGTEFTLTISSLQPEDFATYYCQQLNSYPLTFGGGTKLEIKR
# notes: human IgG1
# B26: anti-mutCALR antibody clone 39 (antibody, human IgG1, kappa, V domains shown)
# VH: B25 VH with P4L, R65Q
# VL: B25 VL with N34D
# notes: human IgG1
# Biological target: T1, human mutCALR on BaF3 cells stably …
# Assay: flow cytometry, BaF3 MPL-mutCALR cells
# Procedure: On the day of the assay, cells were washed and resuspended in assay buffer. Approximately 200,000 cells/well were added to 96-well plates and stained with the indicated concentration of antibodies for 30 minutes on ice. Cells were then washed and stained with goat anti-human secondary conjugated to R-phycoerythrin (R-PE) (Jackson Immuno Research Laboratories) for 30 minutes on ice. The cells were then washed and analyzed by flow cytometry.
Binder,EC50 [µg/mL],MPL-mutCALR AUC
B1,0.02,64600
B2,9.64,80900
B3,0.15,38700
B4,0.01,45700
B5,0.02,62100
B6,0.01,73800
B7,0.01,52500
B8,,60600
B9,0.3,58200
B10,0.05,69700
B11,,91900
B12,,65900
B13,,92700
B14,,63800
B15,4.15,60400
B16,3.19,77900
B17,77.3,65200
B18,,91600
B19,,55200
B20,,124000
B21,0.42,41500
B22,0.7,70100
B23,29.3,67800
B24,,65800
B25,1.44,37000
B26,,51500

# Biological target: T2, human Type 1 mutCALR on Ba/F3 cells …
# Assay: cell-based or functional assay
row,Binder,"IC50, inhibition of pSTAT5 [µg/mL]"
1,B1,0.402
2,B2,0.039
3,B3,80.4
4,B4,26.8
5,B5,0.444
6,B6,0.092
7,B7,0.47
8,B8,0.364
9,B9,0.03
10,B10,0.052
11,B11,0.036
12,B12,0.03
13,B13,0.018
14,B14,0.054
15,B15,0.193
16,B16,0.037
17,B17,0.024
18,B18,0.062
19,B19,0.037
20,B20,0.035
21,B21,0.125
22,B22,0.032
23,B23,0.031
24,B24,0.346
25,B25,3.55
26,B26,3.97
